Assay results reported in paper PMC5673899, “Structural basis for receptor recognition of pollen tube attraction peptides” (Nature Communications, 2017).
Positions count from the first letter of the chain named. Numbers in names are those of the source. Entries after “also recorded” stand apart in the source; their conditions may differ.

Legend:
[1] = target: T1, AtPRK6^LRR, extracellular LRR domain of AtPRK6 (residues 1-262) (Arabidopsis thaliana, UniProt Q3E991 27-262); test: ITC
T1 chain: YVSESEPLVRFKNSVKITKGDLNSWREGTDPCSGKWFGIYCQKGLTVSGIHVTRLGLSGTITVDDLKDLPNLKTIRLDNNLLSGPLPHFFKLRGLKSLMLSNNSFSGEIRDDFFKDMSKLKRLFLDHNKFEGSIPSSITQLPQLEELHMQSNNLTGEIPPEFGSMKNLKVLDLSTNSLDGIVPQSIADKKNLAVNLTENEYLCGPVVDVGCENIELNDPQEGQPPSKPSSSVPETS

[2] = target: T2, AtPRK6^LRR, extracellular LRR domain of AtPRK6 (residues 1-262) (Arabidopsis thaliana, UniProt Q3E991 27-262); test: ITC; ITC200, 25 °C, 200 mM HEPES pH 7.0, 100 mM NaCl; about 0.9 mM AtLURE1.2 injected (20 x 2 μl) into 0.08 mM LRR protein in the cell; settings: both partners purified
T2 construct: signal peptide in the construct; leucine-rich repeat receptor kinase PRK6 of Arabidopsis thaliana, extracellular LRR domain, residues 1-262; Monomer by gel filtration; likely glycosylated (apparent 34 kDa); source: High Five insect cells (baculovirus), secreted, purified (Ni-NTA, size-exclusion chromatography); also co-expressed with AtLURE1 peptides; not shown: His6, C-terminal, kept
T2 sequence (looked up): T1 chain

[3] = target: T3, AtPRK6^LRR N239A (residues 1-262) (Arabidopsis thaliana, UniProt Q3E991 27-262, N239A); test: pull-down; His-tagged LRR protein mixed with excess AtLURE1.2 peptide and held on Ni-NTA resin, on ice 30 min; washed five times with 25 mM Tris pH 8.0, 150 mM NaCl, 15 mM imidazole; eluted with 250 mM imidazole; SDS-PAGE, Coomassie; settings: both partners purified
T3 construct: signal peptide in the construct; PRK6 of Arabidopsis thaliana, extracellular LRR domain, residues 1-262, with N239A; also called N239A mutant of PRK6; source: High Five insect cells (baculovirus), secreted, purified as AtPRK6^LRR; not shown: His6, C-terminal, kept
T3 sequence (looked up): T1 chain with N213A

[4] = target: T2, AtPRK6^LRR, extracellular LRR domain of …; test: as above; settings: both partners purified
AtPRK6^LRR = test: In vitro pull-down with AtPRK6^LRR; type: binding, Arabidopsis thaliana
Description: The genes of AtPRK3 ^LRR (residues 1–241), AtPRK4 ^LRR (residues 1–277), AtPRK5 ^LRR (residues 1–279), AtPRK6 ^LRR (residues 1–262), MIK1 ^LRR (residues 1–633), MIK2 ^LRR (residues 1–707) were amplified from Arabidopsis cDNA library by PCR and cloned into pFastBac-1 vector with a C-terminal 6 × His-tag. Their identities were confirmed by sequencing. The mature form of AtLURE1.1 (residues 20–94), AtLURE1.2 (residues 20–90), AtLURE1.3 (residues 21–91), and AtLURE1.4 (residues 20–90) were cloned into pFastBac-1 vector, with a modified N-terminal hemolin signal peptide and 6 × His-SUMO tag. Point mutation constructs were generated by QuickChange Site-Directed Mutagenesis Kit (Strategene). All the proteins were expressed using the Bac-to-Bac baculovirus expression system (Invitrogen) in High Five cells at 22 °C. One liter of High Five cells (2.0 × 10^6 cells mL^−1) cultured in the medium from Expression Systems was infected with 25 ml recombinant baculovirus and the media was collected after 72 h of infection. Secreted LRR proteins were purified using Ni-NTA (Novagen) and size-exclusion chromatography (Hiload 200, GE Healthcare) in buffer containing 10 mM Bis-Tris pH 6.0 and 100 mM NaCl. The His-SUMO tag of the AtLURE proteins was removed by Prescission Protease at 4 °C overnight in buffer containing 25 mM Tris pH 8.0 and 150 mM NaCl. All AtLURE proteins were further cleaned by size-exclusion chromatography (Hiload 200, GE Healthcare). For co-expression of AtPRK6^LRR and AtLURE1, one liter of High Five cells were co-infected with 20 and 30 ml recombinant baculovirus of AtPRK6^LRR and AtLURE1, respectively. Secreted AtPRK6^LRR-AtLURE1 complexes were processed with Prescission Protease digestion and then purified as described above. Expression and purification procedures of all the mutants were essentially the same as those of AtPRK6^LRR and AtLURE1.2.
The purified His-tagged ectodomains of AtPRK proteins and MIK1, 2 were used to pull-down the AtLURE1.2 peptide. […] All the eluted samples were analyzed by SDS-PAGE and visualized by Coomassie blue staining. […]

[5] = system: semi-in-vivo pollen tubes; test: Gelatin-beads assay, wild-type semi-in-vivo pollen tubes; type: cell-based, Arabidopsis; settings: for pollen tube attraction activity (in words): Tukey−Kramer test, P < 0.05
Experimental: (§1) Attraction activities of mutant AtLURE1.2 peptides were examined for semi-in-vivo pollen tubes growing through cut, pollinated pistils by gelatin-beads assay and wavy assay, [20]. For the gelatin-beads assay, pollen tubes were grown on solid pollen germination medium poured into a mold made with 1-mm thick silicone rubber and cover glasses. After hand-pollination, the topside cover glass was removed and the medium was covered with hydrated silicone oil (KF-96–100CS; Shin-Etsu). Attraction of pollen tubes toward the peptide was evaluated using AtLURE1 peptide containing gelatine beads under an inverted microscope (IX71, Olympus) equipped with a micro-manipulator (Narishige). For the AtLURE1-responsive wavy assay, the purified AtLURE1.2 peptide was added to solid pollen germination medium, which was melted at 70 °C and then cooled to a certain degree. The mixture was mixed by vortexing and poured into the mold. Pollen tubes of each genotype were grown through cut styles, as mentioned above. Each peptide (25 μM in 10 mM Bis-Tris (pH 6.0) and 100 mM NaCl) was diluted to 250 nM by cultivation medium in both assays. To examine reactivity of PRK6 mutants to AtLURE1.2, constructs for PRK6 mutants, D234A, N239A, and ΔN239I240, were generated by site-directed mutagenesis from a wild-type PRK6 vector, pPZP221-pPRK6::PRK6-mRuby2 (ref. [20]). Wild-type and mutant PRK6 constructs were introduced into prk6–1 plant. After transformants were selected by the same criteria as previously, beads assay and wavy assay were performed in several T1 lines and single T2 line, respectively, for each genotype using 250 nM wild-type AtLURE1.2 peptide.

[6] = system: semi-in-vivo pollen tubes (wild type); test: AtLURE-responsive wavy assay, wild-type pollen tubes; type: cell-based, Arabidopsis; settings: 250 nM peptide in solid pollen germination medium
Experimental: as §1, with “To examine reactivity of PRK6 mutants to AtLURE1.2, constructs for PRK6 mutants, D234A, N239A, and ΔN239I240, were generated by site-directed mutagenesis from a wild-type PRK6 vector, pPZP221-pPRK6::PRK6-mRuby2 (ref. [20]). Wild-type and mutant PRK6 constructs were introduced into prk6–1 plant. After transformants were selected by the same criteria as previously, beads assay and wavy assay were performed in several T1 lines and single T2 line, respectively, for each genotype using 250 nM wild-type AtLURE1.2 peptide.” left out
pollen tubes. Fluorescence is from mRuby2 fused to the C-terminal of PRK6 receptors, showing that all of mutant PRK6 receptors localize normally to the plasma membrane of the pollen tube tip. […]

[7] = gelatin beads containing 250 nM peptide

B1: AtLURE1.2, mature form (residues 20-90) (peptide, UniProt Q4VP08 20-90, looked up)
chain: TLINGSSDEERTYSFSPTTSPFDPRSLNQELKIGRIGYCFDCARACMRRGKYIRTCSFERKLCRCSISDIK
notes: AtLURE1.2, defensin-like cysteine-rich peptide of Arabidopsis thaliana, mature form, residues 20-90; Cloned in pFastBac-1 behind a modified N-terminal hemolin signal peptide and a 6xHis-SUMO tag; Likely glycosylated (apparent 14 kDa); also called AtLURE1.2 peptide; source: also co-expressed with AtPRK6^LRR for the crystallised complex; not shown: His6, N-terminal, cleaved; SUMO, N-terminal, …
Ka [1]: 321000 M⁻¹
Kd [2]: ~3.1 µM
binding result [3]: binds

B2: AtLURE1.2 R83A (residues 20-90) (peptide, UniProt Q4VP08 20-90, looked up)
chain: B1 chain with R64A
notes: AtLURE1.2 of Arabidopsis thaliana, mature form, residues 20-90, with R83A; also called R83A AtLURE1.2; mutant peptide R83A; source: High Five insect cells (baculovirus), secreted, purified as AtLURE1.2; not shown: His6, N-terminal, cleaved; SUMO, N-terminal, cleaved
binding result [4]: binds

B3: R83A: R83A AtLURE1.2 peptide, Arg83 substituted with alanine (protein)
chain: B1 chain with R64A
modifications: left off: His6, N-terminal, cleaved | SUMO, N-terminal, cleaved
notes: R83A AtLURE1.2 peptide, Arg83 substituted with alanine
interaction in pull-down assay (AtPRK6^LRR; Ni-NTA, excess AtLURE1.2, on ice 30 min, washed five times, 25 mM Tris pH 8.0, 150 mM NaCl, SDS-PAGE, Coomassie blue, repeated at least three times): compromised but not abolished; also recorded: compromised
interaction in pull-down assay, less harsh washing (AtPRK6^LRR; once or twice washing, peer review file): much less than the wild type AtLURE1.2
pollen tube attraction activity (in words) [5, 7]: significantly lower than those in other four peptides
attraction frequency of pollen tubes ([5]; gelatin beads containing 250 nM peptide, mean ± SD, 9–16 pollen tubes per assay, 3−5 assays): 56 ± 11%
pollen tubes not attracted to the bead ([5]; gelatin beads, 250 nM peptide): more than 44%
wavy pollen tube response [6]: decreased; also recorded: greatly reduced the numbers of wavy pollen tubes

B4: R68A: R68A mutant AtLURE1.2 peptide (protein, UniProt Q4VP08 20-90, looked up, variant R68A)
Protein LURE 1.2: B1 chain with R49A
pollen tube attraction activity (in words) [5, 7]: little effect

B5: R73A: R73A mutant AtLURE1.2 peptide (protein, UniProt Q4VP08 20-90, looked up, variant R73A)
Protein LURE 1.2: B1 chain with R54A
pollen tube attraction activity (in words) [5, 7]: little effect

B6: R79A: R79A mutant AtLURE1.2 peptide (protein, UniProt Q4VP08 20-90, looked up, variant R79A)
Protein LURE 1.2: B1 chain with R60A
pollen tube attraction activity (in words) [5, 7]: little effect
